Columns and labels:
[1] = FVIII antigen ELISA, 293T cell extracts; conditions: control: WT full-length FVIII
[2] = Coatest SP4 chromogenic assay, 293T media; conditions: control: WT full-length FVIII
[3] = FVIII antigen ELISA, 293T conditioned media; conditions: control: WT full-length FVIII
[4] = chromogenic activity / ELISA antigen ratio in media; conditions: control: WT full-length FVIII
[5] = anti-FLAG IP/blot of 293T conditioned media; conditions: glycan lost
[6] = anti-FLAG IP/blot of media, TM 2 μg/ml 12 h; conditions: glycan lost; control: same construct, untreated

For Coagulation factor VIII (FVIII): D2131N, the “expression_or_secretion, percent_of_wt” value ([1]; glycan gained) was “no change”, the “other: cofactor (coagulant) activity in conditioned media, percent_of_wt” value (“other: cofactor … percent_of_wt” below) ([2]; glycan gained) was “decreases” and the “expression_or_secretion, percent_of_wt” value ([3]; glycan gained) was “no change”. The “other: relative (specific) cofactor activity, percent_of_wt” value ([4]; glycan gained) was “decreases”.
In the case of Coagulation factor VIII (FVIII): N2118Q, the “expression_or_secretion, percent_of_wt” value ([1]; glycan lost) is reported as “no change”, the “other: cofactor … percent_of_wt” value ([2]; glycan lost) is reported as “no change” and the “expression_or_secretion, percent_of_wt” value ([3]; glycan lost) is reported as “no change”. The expression_or_secretion ([5]; control: WT C domain) was “decreases” and the “other: relative (specific) cofactor activity, percent_of_wt” value ([4]; glycan lost) was “no change”.
For “Coagulation factor VIII (FVIII): N2118Q + D2131N”, the expression_or_secretion ([5]; control: D2131N C domain) was “abolishes”.
With “Coagulation factor VIII (FVIII): TM, A469S A2 domain” the expression_or_secretion [6] was “increases”.
For “Coagulation factor VIII (FVIII): TM, A469T A2 domain”, the expression_or_secretion [6] was “increases”.
With “Coagulation factor VIII (FVIII): TM, G701S A2 domain” the expression_or_secretion [6] was “decreases”.
For “Coagulation factor VIII (FVIII): TM, I566T A2 domain”, the expression_or_secretion [6] was “decreases”.
For “Coagulation factor VIII (FVIII): TM, M614T A2 domain”, the expression_or_secretion [6] was “no change”.
With “Coagulation factor VIII (FVIII): TM, WT C domain” the expression_or_secretion [6] was “decreases”.
For Coagulation factor VIII (FVIII): W2062S, the “expression_or_secretion, percent_of_wt” value ([1]; glycan gained) was “no change”, the “other: cofactor … percent_of_wt” value ([2]; glycan gained) was “decreases” and the “expression_or_secretion, percent_of_wt” value ([3]; glycan gained) was “no change”. For the same substance, the “other: relative (specific) cofactor activity, percent_of_wt” value ([4]; glycan gained) was “decreases”.

From publication PMC5957299
